The record followed here is paper PMC11257539 (bioRxiv, 2024).

Assay [1] deals with SNX27 PDZ domain (purified, BLI analyte and ITC cell) (human, UniProt Q96L92 43-136). In words: ITC. In general terms: Isothermal titration calorimetry measures the heat released or taken up as one component is titrated into another.
The target of assay [2] is SNX27 full-length (purified, as analyte in BLI and in liposome pelleting) (human, UniProt Q96L92 1-541). In words: co-sedimentation.
Assay [3] deals with T1, ESCPE-1 complex (SNX2/SNX6 heterodimer) (human, UniProt O60749;Q9UNH7).
T1 sequence 1: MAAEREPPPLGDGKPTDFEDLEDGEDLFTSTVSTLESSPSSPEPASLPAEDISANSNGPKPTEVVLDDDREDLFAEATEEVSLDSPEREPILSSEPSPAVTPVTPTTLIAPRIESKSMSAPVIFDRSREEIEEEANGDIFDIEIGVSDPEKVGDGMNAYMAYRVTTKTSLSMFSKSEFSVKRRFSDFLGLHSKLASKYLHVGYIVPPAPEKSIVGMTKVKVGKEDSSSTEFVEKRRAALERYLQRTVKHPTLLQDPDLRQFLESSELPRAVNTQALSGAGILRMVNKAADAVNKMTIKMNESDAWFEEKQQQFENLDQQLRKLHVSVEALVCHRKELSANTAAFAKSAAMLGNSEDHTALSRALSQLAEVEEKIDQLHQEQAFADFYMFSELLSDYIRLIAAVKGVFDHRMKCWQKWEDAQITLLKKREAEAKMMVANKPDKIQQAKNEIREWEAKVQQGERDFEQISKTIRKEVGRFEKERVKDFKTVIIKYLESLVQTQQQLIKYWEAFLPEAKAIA
T1 sequence 2: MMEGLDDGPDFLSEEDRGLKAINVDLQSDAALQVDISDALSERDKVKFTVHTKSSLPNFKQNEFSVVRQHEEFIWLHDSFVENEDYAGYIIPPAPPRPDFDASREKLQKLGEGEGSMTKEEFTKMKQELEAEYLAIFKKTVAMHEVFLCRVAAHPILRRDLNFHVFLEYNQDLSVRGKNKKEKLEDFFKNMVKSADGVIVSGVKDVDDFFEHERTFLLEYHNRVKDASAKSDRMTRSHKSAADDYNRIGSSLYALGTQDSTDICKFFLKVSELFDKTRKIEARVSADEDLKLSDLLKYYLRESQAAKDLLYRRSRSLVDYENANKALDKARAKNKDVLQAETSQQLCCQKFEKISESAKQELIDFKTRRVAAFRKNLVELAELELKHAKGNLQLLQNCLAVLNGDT
In words: co-sedimentation.

Non-standard residues stand in square brackets, D forms with d. No end group written: not given here. pS = N[C@@H](COP(=O)(O)O)C(=O)O

B1: PDZbm cargo peptide 5-HT4(a)R-pS-5 (EpSLESCF) (peptide)
peptide: E[pS]LESCF
For the molecule B1, in assay [1], the dissociation constant Kd (in general, the constant that tells how readily two partners part at equilibrium) stood at 1100 nM; the dH was -15.2 kcal/mol; the stoichiometry N (in general, the number of molecules, sites or subunits per partner or assembly) was found to be 1.1.

B2: His-tagged PDZbm cargo: C-terminal cytosolic tail of 5-HT4(a)R (residues 360-388) (peptide)
chain: YTVLHRGHHQELEKLPIHNDPESLESCF
In the case of B2, the binding result in assay [2] is listed as “binds”.

B3: CI-MPR cargo motif (residues 2347-2375) (peptide)
chain: SNVSYKYSKVNKEEETDENETEWLMEEIQ
Regarding B3, the binding result in assay [3] is on record as “binds”.
